Assay results reported in publication PMC10325900, “A conserved motif in the disordered linker of human MLH1 is vital for DNA mismatch repair and its function is diminished by a cancer family mutation” (Nucleic Acids Research, 2023).
“Also recorded” adds a separate entry of the source.

B1: p.Arg385Tyr: MLH1 variant (protein, UniProt P40692 2-756, looked up, variant R385Y)
DNA mismatch repair protein …: SFVAGVIRRLDETVVNRIAAGEVIQRPANAIKEMIENCLDAKSTSIQVIVKEGGLKLIQIQDNGTGIRKEDLDIVCERFTTSKLQSFEDLASISTYGFRGEALASISHVAHVTITTKTADGKCAYRASYSDGKLKAPPKPCAGNQGTQITVEDLFYNIATRRKALKNPSEEYGKILEVVGRYSVHNAGISFSVKKQGETVADVRTLPNASTVDNIRSIFGNAVSRELIEIGCEDKTLAFKMNGYISNANYSVKKCIFLLFINHRLVESTSLRKAIETVYAAYLPKNTHPFLYLSLEISPQNVDVNVHPTKHEVHFLHEESILERVQQHIESKLLGSNSSRMYFTQTLLPGLAGPSGEMVKSTTSLTSSSTSGSSDKVYAHQMVYTDSREQKLDAFLQPLSKPLSSQPQAIVTEDKTDISSGRARQQDEEMLELPAPAEVAAKNQSLEGDTTKGTSEMSEKRGPTSSNPRKRHREDSDVEMVEDDSRKEMTAACTPRRRIINLTSVLSLQEEINEQGHEVLREMLHNHSFVGCVNPQWALAQHQTKLYLLNTTKLSEELFYQILIYDFANFGVLRLSEPAPLFDLAMLALDSPESGWTEEDGPKEGLAEYIVEFLKKKAEMLADYFSLEIDEEGNLIGLPLLIDNYVPPLEGLPIFILRLATEVNWDEEKECFESLSKECAMFYSIRKQYISEESTLSGQQSEVPGSIPNSWKWTVEHIVYKALRSHILPPKHFTEDGNILQLANLPDLYKVFERC
B2: p.Arg385Ala: MLH1 control variant (protein, UniProt P40692 2-756, looked up, variant R385A)
DNA mismatch repair protein …: SFVAGVIRRLDETVVNRIAAGEVIQRPANAIKEMIENCLDAKSTSIQVIVKEGGLKLIQIQDNGTGIRKEDLDIVCERFTTSKLQSFEDLASISTYGFRGEALASISHVAHVTITTKTADGKCAYRASYSDGKLKAPPKPCAGNQGTQITVEDLFYNIATRRKALKNPSEEYGKILEVVGRYSVHNAGISFSVKKQGETVADVRTLPNASTVDNIRSIFGNAVSRELIEIGCEDKTLAFKMNGYISNANYSVKKCIFLLFINHRLVESTSLRKAIETVYAAYLPKNTHPFLYLSLEISPQNVDVNVHPTKHEVHFLHEESILERVQQHIESKLLGSNSSRMYFTQTLLPGLAGPSGEMVKSTTSLTSSSTSGSSDKVYAHQMVATDSREQKLDAFLQPLSKPLSSQPQAIVTEDKTDISSGRARQQDEEMLELPAPAEVAAKNQSLEGDTTKGTSEMSEKRGPTSSNPRKRHREDSDVEMVEDDSRKEMTAACTPRRRIINLTSVLSLQEEINEQGHEVLREMLHNHSFVGCVNPQWALAQHQTKLYLLNTTKLSEELFYQILIYDFANFGVLRLSEPAPLFDLAMLALDSPESGWTEEDGPKEGLAEYIVEFLKKKAEMLADYFSLEIDEEGNLIGLPLLIDNYVPPLEGLPIFILRLATEVNWDEEKECFESLSKECAMFYSIRKQYISEESTLSGQQSEVPGSIPNSWKWTVEHIVYKALRSHILPPKHFTEDGNILQLANLPDLYKVFERC
B3: p.Arg385Glu: MLH1 control variant (protein, UniProt P40692 2-756, looked up, variant R385E)
DNA mismatch repair protein …: SFVAGVIRRLDETVVNRIAAGEVIQRPANAIKEMIENCLDAKSTSIQVIVKEGGLKLIQIQDNGTGIRKEDLDIVCERFTTSKLQSFEDLASISTYGFRGEALASISHVAHVTITTKTADGKCAYRASYSDGKLKAPPKPCAGNQGTQITVEDLFYNIATRRKALKNPSEEYGKILEVVGRYSVHNAGISFSVKKQGETVADVRTLPNASTVDNIRSIFGNAVSRELIEIGCEDKTLAFKMNGYISNANYSVKKCIFLLFINHRLVESTSLRKAIETVYAAYLPKNTHPFLYLSLEISPQNVDVNVHPTKHEVHFLHEESILERVQQHIESKLLGSNSSRMYFTQTLLPGLAGPSGEMVKSTTSLTSSSTSGSSDKVYAHQMVETDSREQKLDAFLQPLSKPLSSQPQAIVTEDKTDISSGRARQQDEEMLELPAPAEVAAKNQSLEGDTTKGTSEMSEKRGPTSSNPRKRHREDSDVEMVEDDSRKEMTAACTPRRRIINLTSVLSLQEEINEQGHEVLREMLHNHSFVGCVNPQWALAQHQTKLYLLNTTKLSEELFYQILIYDFANFGVLRLSEPAPLFDLAMLALDSPESGWTEEDGPKEGLAEYIVEFLKKKAEMLADYFSLEIDEEGNLIGLPLLIDNYVPPLEGLPIFILRLATEVNWDEEKECFESLSKECAMFYSIRKQYISEESTLSGQQSEVPGSIPNSWKWTVEHIVYKALRSHILPPKHFTEDGNILQLANLPDLYKVFERC
B4: p.Arg385His: human MLH1 missense variant, c.1154G>A (protein, UniProt P40692 2-756, looked up, variant R385H)
DNA mismatch repair protein …: SFVAGVIRRLDETVVNRIAAGEVIQRPANAIKEMIENCLDAKSTSIQVIVKEGGLKLIQIQDNGTGIRKEDLDIVCERFTTSKLQSFEDLASISTYGFRGEALASISHVAHVTITTKTADGKCAYRASYSDGKLKAPPKPCAGNQGTQITVEDLFYNIATRRKALKNPSEEYGKILEVVGRYSVHNAGISFSVKKQGETVADVRTLPNASTVDNIRSIFGNAVSRELIEIGCEDKTLAFKMNGYISNANYSVKKCIFLLFINHRLVESTSLRKAIETVYAAYLPKNTHPFLYLSLEISPQNVDVNVHPTKHEVHFLHEESILERVQQHIESKLLGSNSSRMYFTQTLLPGLAGPSGEMVKSTTSLTSSSTSGSSDKVYAHQMVHTDSREQKLDAFLQPLSKPLSSQPQAIVTEDKTDISSGRARQQDEEMLELPAPAEVAAKNQSLEGDTTKGTSEMSEKRGPTSSNPRKRHREDSDVEMVEDDSRKEMTAACTPRRRIINLTSVLSLQEEINEQGHEVLREMLHNHSFVGCVNPQWALAQHQTKLYLLNTTKLSEELFYQILIYDFANFGVLRLSEPAPLFDLAMLALDSPESGWTEEDGPKEGLAEYIVEFLKKKAEMLADYFSLEIDEEGNLIGLPLLIDNYVPPLEGLPIFILRLATEVNWDEEKECFESLSKECAMFYSIRKQYISEESTLSGQQSEVPGSIPNSWKWTVEHIVYKALRSHILPPKHFTEDGNILQLANLPDLYKVFERC

System: G-T mismatch in a test plasmid
Experiment: MMR activity of MLH1 variants (MLH1-PMS2 expressed in HEK293T cells)
Format: biochemical, human
Settings: >3 independent experiments; for DNA mismatch repair activity of MLH1 variant (in words): variant MLH1 + PMS2 transfected in HEK293T, relative to wildtype, 37°C, 15 min; for effect of second p.Arg385 alteration on the MMR defect of p.Tyr750Arg: double variants (Figure 6D)
Method: Sequence variants of the MLH1 expression vector were generated using the Q5 site directed mutagenesis system (New England Biolabs, Ipswich, MA, USA) with the appropriate primers (Supplementary Table S1).
Mismatch repair activity was assessed as described in detail before ([79],[81]) (Supplementary Figure S3). […] Mismatched DNA plasmid substrate (Supplementary Figure S3) prepared according to previously published procedures ([81–83]) was added, and reactions in a final volume of 25 μl were incubated at 37°C for 15 min. Repair efficiency was scored by purifying the mismatched DNA plasmid from the reaction and assessing the fraction of homoduplex sequence by restriction digestion of the mismatched site using EcoRV. The substrate was additionally linearized with AseI.
Figure 2. Expression and DNA mismatch repair activity of human and artificial ConMot variants. […] As a negative control, one sample was only transfected with an EGFP. After 48 h, native whole cell protein extracts were prepared. Expression was assessed by SDS-PAGE and western blotting. (A) Representative western blot of MLH1 wildtype and variant expressions. Average expression levels of MLH1 of > 5 independent transfections were determined and are given in the bar diagram below. (B) The extracts of the transfections were used to assess the DNA mismatch repair activities of the variant MLH1 proteins in comparison with wildtype (WT) MLH1-PMS2 as detailed in Materials and Methods and as shown in Supplementary Figure S3. The EGFP-transfected extract sample served as negative control. Representative agarose gels are shown in the top panel.
Figure 3. Analysis of the relevance of ConMot core and surrounding sequences. MLH1 proteins containing either the wildtype human ConMot motif sequence or variants were directly compared concerning expression and MMR activity. (A) Comparison of the ConMot variants used: the core-scramble variant sequence, the full-scramble variant sequence and an animal-plant hybrid that contains the ConMot consensus sequence of plants as it exists, for example, in walnut and mungo bean (Vigna radiata and Juglans regia). (B) Comparison of conservation in the animal versus plant ConMot in WebLogo representation. Specific differences in conservation within the sequences flanking the core MVRTD sequence are marked by red arrows above the animal sequence. (C) Western blot of the expression of the different MLH1-ConMot wildtype (WT) and the variants shown in A after transfection in HEK293T cells; negative control: transfection of EGFP. (D) MMR activities were assessed in direct comparison to negative control and wildtype human MLH1 as in Figure 2B. Average activities and standard deviations were calculated from >3 independent experiments.
Figure 6. The MMR defect of p.Tyr750Arg is partly compensated by p.Arg385Tyr. […] (B) The side chain of the highly conserved Arg385 is predicted to be in proximity to the side chain of the highly conserved Tyr750 residue. (C) MLH1-PMS2-deficient HEK293T cells were co-transfected with the indicated single- and double variants of MLH1 and PMS2. Protein extracts were prepared, separated by SDS-PAGE, blotted and probed for MLH1 protein expression. (D) MMR assays were performed to test DNA mismatch repair activity as detailed in Materials and Methods. One representative agarose gel is shown, and average repair values in comparison to wildtype and standard deviations of >3 independent experiments are shown in a bar diagram. A two-sided t-test was performed for testing significance of the difference in repair activity of p.Tyr750Arg in comparison to the double variant p.Arg385Tyr + Tyr750Arg.
Mismatched DNA plasmid substrate and principle of MMR assay.
The MMR assay is performed using as substrate a modified 2 kbp derivative of the pUC vector (pUC
CPDC Bb v) originally generated by Wang and Hays and further modified by Plotz et al. and Gonzáles-
Acosta et al . […]

Molecule | DNA mismatch repair activity of MLH1 variant (in words) | DNA mismatch repair activity of MLH1 variant (in words) (listed as proline substitution of Arg385) | DNA mismatch repair activity of MLH1 variant (in words) (listed as deletion) | DNA mismatch repair activity of MLH1 variant (in words) (listed as deletion of the ConMot) | effect of second p.Arg385 alteration on the MMR defect of p.Tyr750Arg
p.Arg385Pro: human MLH1 missense variant in the MVRTD motif | a defect similarly strong as the core-scramble variant; also recorded: most pronounced effect; also recorded: mismatch repair defect | loss of mismatch repair activity |  |  | 
ΔConMot: deletion variant in which the conserved ConMot sequence comprising 20 residues was removed | fully abrogated mismatch repair |  | complete loss of MMR activity | fully deficient in MMR | 
B1 | well tolerated |  |  |  | 
B2 | a defect similarly strong as the core-scramble variant |  |  |  | additionally aggravated the defect
B3 | a defect similarly strong as the core-scramble variant |  |  |  | additionally aggravated the defect
B4 | tolerated; also recorded: did not affect catalytic activity |  |  |  | 
